Assays:
HLA-A*01:01 [1] = assay: IEDB peptide-MHC binding, purified MHC/competitive/fluorescence; filed as Kd, often an IC50 or EC50 that approximates it; ≥ and ≤ were set here for values at or beyond the usual limits of such assays; conditions: source organism: Entamoeba dispar SAW760
HLA-B*14:02 [2] = assay: as above; conditions: source organism: Entamoeba dispar SAW760
HLA-B*58:01 [3] = assay: as above; conditions: source organism: Entamoeba dispar SAW760
HLA-B*07:02 [4] = assay: as above; conditions: source organism: Entamoeba dispar SAW760
HLA-A*66:01 = assay: as above; conditions: source organism: Entamoeba dispar SAW760
HLA-B*44:02 = assay: as above; conditions: source organism: Entamoeba dispar SAW760
HLA-A*30:01 = assay: as above; conditions: source organism: Entamoeba dispar SAW760
HLA-A*11:01 [5] = assay: as above; conditions: source organism: Entamoeba dispar SAW760
HLA-B*08:01 [6] = assay: as above; conditions: source organism: Entamoeba dispar SAW760
HLA-B*27:05 = assay: as above; conditions: source organism: Entamoeba dispar SAW760
HLA-A*30:02 = assay: as above; conditions: source organism: Entamoeba dispar SAW760
HLA-B*53:01 [7] = assay: as above; conditions: source organism: Entamoeba dispar SAW760
HLA-A*26:01 = assay: IEDB peptide-MHC binding, purified MHC/direct/fluorescence; filed as Kd, often an IC50 or EC50 that approximates it; ≥ and ≤ were set here for values at or beyond the usual limits of such assays; conditions: source organism: Campylobacter jejuni
HLA-B*18:01 [8] = assay: as above; conditions: source organism: Campylobacter jejuni
HLA-B*46:01 = assay: as above; conditions: source organism: Campylobacter jejuni
HLA-B*39:01 = assay: as above; conditions: source organism: Campylobacter jejuni
HLA-B*27:03 = assay: as above; conditions: source organism: Campylobacter jejuni
HLA-C*04:01 = assay: as above; conditions: source organism: Campylobacter jejuni
HLA-A*03:01 [9] = assay: as above; conditions: source organism: Campylobacter jejuni
HLA-A*02:11 = assay: as above; conditions: source organism: Campylobacter jejuni
HLA-A*25:01 [10] = assay: as above; conditions: source organism: Campylobacter jejuni
HLA-B*15:01 = assay: as above; conditions: source organism: Campylobacter jejuni
HLA-B*51:01 [11] = assay: as above; conditions: source organism: Campylobacter jejuni
HLA-A*02:12 = assay: as above; conditions: source organism: Campylobacter jejuni
HLA-A*80:01 = assay: as above; conditions: source organism: Campylobacter jejuni
HLA-B*57:01 = assay: as above; conditions: source organism: Campylobacter jejuni
HLA-A*02:03 = assay: as above; conditions: source organism: Campylobacter jejuni
HLA-A*02:19 = assay: as above; conditions: source organism: Campylobacter jejuni
HLA-A*01:01 [12] = assay: IEDB peptide-MHC binding, purified MHC/competitive/fluorescence; ≥ and ≤ were set here for values at or beyond the usual limits of such assays; conditions: source organism: Rattus norvegicus
HLA-B*44:03 = assay: as above; conditions: source organism: Rattus norvegicus
HLA-B*14:02 [13] = assay: as above; conditions: source organism: Rattus norvegicus
HLA-B*58:01 [14] = assay: as above; conditions: source organism: Rattus norvegicus
HLA-B*18:01 [15] = assay: as above; conditions: source organism: Rattus norvegicus
HLA-B*07:02 [16] = assay: as above; conditions: source organism: Rattus norvegicus
HLA-A*03:01 [17] = assay: as above; conditions: source organism: Rattus norvegicus
HLA-A*68:02 = assay: as above; conditions: source organism: Rattus norvegicus
HLA-A*11:01 [18] = assay: as above; conditions: source organism: Rattus norvegicus
HLA-A*24:02 = assay: as above; conditions: source organism: Rattus norvegicus
HLA-A*31:01 = assay: as above; conditions: source organism: Rattus norvegicus
HLA-A*25:01 [19] = assay: as above; conditions: source organism: Rattus norvegicus
HLA-B*51:01 [20] = assay: as above; conditions: source organism: Rattus norvegicus
HLA-A*02:01 = assay: as above; conditions: source organism: Rattus norvegicus
HLA-B*08:01 [21] = assay: as above; conditions: source organism: Rattus norvegicus
HLA-B*37:01 = assay: as above; conditions: source organism: Rattus norvegicus
HLA-B*40:02 = assay: as above; conditions: source organism: Rattus norvegicus
HLA-A*29:02 = assay: as above; conditions: source organism: Rattus norvegicus
HLA-B*53:01 [22] = assay: as above; conditions: source organism: Rattus norvegicus
HLA-B*35:01 = assay: as above; conditions: source organism: Rattus norvegicus

Which results are given for SQYDPKELL?
Kd (HLA-A*01:01 [1]): ≥ 5 µM; Kd (HLA-B*14:02 [2]): ≥ 5 µM; Kd (HLA-B*58:01 [3]): ≥ 5 µM; Kd (HLA-B*07:02 [4]): ≥ 5 µM; Kd (HLA-A*66:01): ≥ 5 µM; Kd (HLA-B*44:02): ≥ 5 µM; Kd (HLA-A*30:01): ≥ 5 µM; Kd (HLA-A*11:01 [5]): ≥ 5 µM; Kd (HLA-B*08:01 [6]): ≥ 5 µM; Kd (HLA-B*27:05): ≥ 5 µM; Kd (HLA-A*30:02): ≥ 5 µM; Kd (HLA-B*53:01 [7]): ≥ 5 µM

For YWDQVTFFY, which Kd (HLA-A*26:01) is on record?
Its Kd is no less than 20 µM.

What about the Kd (HLA-B*18:01 [8]) of the same sequence?
Its Kd is no less than 20 µM.

What about the Kd (HLA-B*46:01) of the same sequence?
Its Kd is no less than 20 µM.

And the Kd (HLA-B*39:01)?
Its Kd is no less than 20 µM.

What about the Kd (HLA-B*27:03) of the same sequence?
Its Kd is no less than 20 µM.

What about the Kd (HLA-C*04:01) of the same sequence?
Its Kd is no less than 20 µM.

And the Kd (HLA-A*03:01 [9])?
Its Kd is no less than 20 µM.

And the Kd (HLA-A*02:11)?
Its Kd is no less than 20 µM.

What about the Kd (HLA-A*25:01 [10]) of the same sequence?
The Kd was no less than 20 µM.

And the Kd (HLA-B*15:01)?
Its Kd is no less than 20 µM.

And the Kd (HLA-B*51:01 [11])?
Its Kd is no less than 20 µM.

What about the Kd (HLA-A*02:12) of the same sequence?
The Kd was no less than 20 µM.

What about the Kd (HLA-A*80:01) of the same sequence?
The Kd was 0.056 µM.

What about the Kd (HLA-B*57:01) of the same sequence?
Its Kd is no less than 20 µM.

What about the Kd (HLA-A*02:03) of the same sequence?
The Kd was no less than 20 µM.

And the Kd (HLA-A*02:19)?
The Kd was no less than 20 µM.

What does the source list for SLLERGQQLGV?
IC50 (HLA-A*01:01 [12]): ≥ 20 µM; IC50 (HLA-B*44:03): ≥ 20 µM; IC50 (HLA-B*14:02 [13]): ≥ 20 µM; IC50 (HLA-B*58:01 [14]): ≥ 20 µM; IC50 (HLA-B*18:01 [15]): ≥ 20 µM; IC50 (HLA-B*07:02 [16]): ≥ 20 µM; IC50 (HLA-A*03:01 [17]): ≥ 20 µM; IC50 (HLA-A*68:02): 0.914 µM; IC50 (HLA-A*11:01 [18]): ≥ 20 µM; IC50 (HLA-A*24:02): 6.08 µM; IC50 (HLA-A*31:01): ≥ 20 µM; IC50 (HLA-A*25:01 [19]): ≥ 20 µM; IC50 (HLA-B*51:01 [20]): ≥ 20 µM; IC50 (HLA-A*02:01): 0.0187 µM; IC50 (HLA-B*08:01 [21]): ≥ 20 µM; IC50 (HLA-B*37:01): ≥ 20 µM; IC50 (HLA-B*40:02): ≥ 20 µM; IC50 (HLA-A*29:02): 17.8 µM; IC50 (HLA-B*53:01 [22]): ≥ 20 µM; IC50 (HLA-B*35:01): ≥ 20 µM

— the Immune Epitope Database (IEDB)
